Measured values reported in patent US20240400701A1 (LANOVA MEDICINES DEVELOPMENT, published 2024).
Substitutions are numbered along the chain they refer to. One block for each binder: values may come before it.

Legend:
[1] = biological target: T1, rat AMHR2 (rat, UniProt Q62893 18-557); assay: FACS on CHO-K1 cells over-expressing rat AMHR2
T1 construct: whole, on cells; also called rat AMHRII
T1 sequence (looked up): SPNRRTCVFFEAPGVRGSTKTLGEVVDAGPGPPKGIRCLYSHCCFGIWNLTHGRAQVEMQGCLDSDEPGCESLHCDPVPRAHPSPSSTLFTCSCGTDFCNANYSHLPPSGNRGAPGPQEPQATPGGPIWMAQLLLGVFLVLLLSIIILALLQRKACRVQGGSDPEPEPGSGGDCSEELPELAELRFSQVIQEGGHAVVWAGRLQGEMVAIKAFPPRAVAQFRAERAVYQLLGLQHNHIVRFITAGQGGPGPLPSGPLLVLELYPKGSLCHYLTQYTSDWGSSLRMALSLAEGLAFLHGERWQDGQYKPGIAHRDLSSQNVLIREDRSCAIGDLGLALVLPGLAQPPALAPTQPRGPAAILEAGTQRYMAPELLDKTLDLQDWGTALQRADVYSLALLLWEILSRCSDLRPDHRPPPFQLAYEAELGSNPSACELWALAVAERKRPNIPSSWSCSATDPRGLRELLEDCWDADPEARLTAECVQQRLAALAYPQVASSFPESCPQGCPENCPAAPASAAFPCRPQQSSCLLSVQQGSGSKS
Protocol: (§1) To evaluate these antibodies' cross reactivities to cyno, rat and mouse AMHR2, CHO-K1 cells over-expressing cyno, rat and mouse AMHR2, respectively, were harvested from flasks. 100 μl of 1×10⁶ cells/ml of cells were incubated with primary antibodies in 4-fold serial dilutions starting from 300 nM to 0.018 nM for 30 minutes on ice. After being washed with 200 μl of FACS buffer twice, cells were incubated with secondary antibody for 30 minutes on ice. Cells were washed with 200 μl of FACS buffer twice and analyzed by FACS.

[2] = biological target: T2, human AMHRII (anti-Mullerian hormone receptor type 2) (human, UniProt Q16671 18-573); assay: FACS on CHO-K1 cells over-expressing human AMHR2
T2 construct: whole, on cells; also called AMHR2; human AMHR2
T2 sequence (looked up): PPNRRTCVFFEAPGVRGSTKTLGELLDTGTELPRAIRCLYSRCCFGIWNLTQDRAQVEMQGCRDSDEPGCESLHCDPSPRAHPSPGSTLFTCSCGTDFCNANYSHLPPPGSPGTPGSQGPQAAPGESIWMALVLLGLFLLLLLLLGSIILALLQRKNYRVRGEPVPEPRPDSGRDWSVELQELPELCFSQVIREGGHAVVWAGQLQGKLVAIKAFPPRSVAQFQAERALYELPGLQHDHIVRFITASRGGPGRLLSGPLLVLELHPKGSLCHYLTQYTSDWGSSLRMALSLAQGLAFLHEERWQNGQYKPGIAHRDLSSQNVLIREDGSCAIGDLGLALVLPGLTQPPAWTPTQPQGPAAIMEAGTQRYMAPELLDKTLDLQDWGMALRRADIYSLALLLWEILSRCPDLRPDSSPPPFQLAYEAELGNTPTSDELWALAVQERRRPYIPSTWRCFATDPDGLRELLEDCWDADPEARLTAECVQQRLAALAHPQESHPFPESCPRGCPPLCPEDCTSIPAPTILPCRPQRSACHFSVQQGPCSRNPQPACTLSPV
Protocol: (§2) CHO-K1 cells over-expressed AMHR2 were harvested from flasks. 100 μl of 1×10⁶ cells/ml of cells were incubated with the humanized antibodies in 3-fold serial dilutions starting from 300 nM to 0.001 nM for 30 minutes on ice. After being washed with 200 μl of FACS buffer twice, cells were incubated with secondary antibody for 30 minutes on ice. Cells were washed with 200 μl of FACS buffer twice and analyzed by FACS.

[3] = biological target: T3, mouse AMHR2 (mouse, UniProt Q8K592 16-568); assay: FACS on CHO-K1 cells over-expressing mouse AMHR2
T3 construct: whole, on cells; also called mouse AMHRII
T3 sequence (looked up): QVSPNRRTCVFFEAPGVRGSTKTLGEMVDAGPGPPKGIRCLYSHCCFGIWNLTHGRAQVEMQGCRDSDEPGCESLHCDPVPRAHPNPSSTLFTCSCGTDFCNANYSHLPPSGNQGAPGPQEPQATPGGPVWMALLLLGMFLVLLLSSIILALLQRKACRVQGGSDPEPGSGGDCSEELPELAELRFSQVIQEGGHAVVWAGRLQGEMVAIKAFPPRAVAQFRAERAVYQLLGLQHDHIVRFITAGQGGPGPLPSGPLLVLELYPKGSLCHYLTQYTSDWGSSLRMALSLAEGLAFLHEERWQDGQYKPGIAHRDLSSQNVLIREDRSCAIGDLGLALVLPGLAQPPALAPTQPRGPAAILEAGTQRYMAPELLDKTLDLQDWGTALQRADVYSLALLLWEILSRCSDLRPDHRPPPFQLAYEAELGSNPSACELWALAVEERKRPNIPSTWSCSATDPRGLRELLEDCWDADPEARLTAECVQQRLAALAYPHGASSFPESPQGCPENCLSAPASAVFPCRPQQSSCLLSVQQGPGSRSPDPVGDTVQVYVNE
Protocol: as §1

[4] = biological target: T2, human AMHRII (anti-Mullerian hormone …); assay: FACS on Rko cells over-expressing human AMHR2
Protocol: as §2, with “Rko” for “CHO-K1”, “over-expressing” for “over-expressed”, “primary PTM” for “the humanized”

[5] = biological target: T2, human AMHRII (anti-Mullerian hormone …); assay: cell-based or functional assay
[6] = biological target: T2, human AMHRII (anti-Mullerian hormone …); assay: FACS on CHO-K1 cells over-expressing human AMHR2; remark: listed apart in the source
Protocol: CHO-K1 cells that over-expressed AMHR2 were harvested from flasks. 100 μl of 1×10⁶ cells/ml of cells were incubated with primary chimeric antibodies (or with positive reference antibody Ref.Ab) in 3-fold serial dilutions starting from 300 nM to 0.002 nM for 30 minutes on ice. After being washed with 200 μl of FACS buffer twice, cells were incubated with secondary antibody for 30 minutes on ice. Cells were washed with 200 μl of FACS buffer twice and analyzed by FACS.

[7] = biological target: T2, human AMHRII (anti-Mullerian hormone …); assay: FACS on CHO-K1 cells over-expressing human AMHR2; remark: listed apart in the source
Protocol: as §2

[8] = biological target: T2, human AMHRII (anti-Mullerian hormone …); assay: FACS on Rko cells over-expressing human AMHR2; remark: listed apart in the source
Protocol: Similarly, the binding of these antibodies was tested with Rko cells that over-expressed AMHR2. 100 μl of 1×10⁶ cells/ml of cells were incubated with the antibodies in 3-fold serial dilutions starting from 300 nM to 0.002 nM for 30 minutes on ice. After being washed with 200 μl of FACS buffer twice, cells were incubated with secondary antibody for 30 minutes on ice. Cells were washed with 200 μl of FACS buffer twice and analyzed by FACS.

[9] = biological target: T2, human AMHRII (anti-Mullerian hormone …); assay: FACS on CHO-K1 cells over-expressing human AMHR2; remark: listed apart in the source
Protocol: as §2

[10] = biological target: T2, human AMHRII (anti-Mullerian hormone …); assay: FACS on CHO-K1 cells over-expressing human AMHR2; remark: listed apart in the source
Protocol: as §2

[11] = biological target: T2, human AMHRII (anti-Mullerian hormone …); assay: FACS on CHO-K1 cells over-expressing human AMHR2; remark: listed apart in the source
Protocol: as §2

[12] = biological target: T2, human AMHRII (anti-Mullerian hormone …); assay: FACS on CHO-K1 cells over-expressing human AMHR2; remark: listed apart in the source
Protocol: as §2

B1: 31D9B3 VH1.3-VL2.2 hIgG1 (antibody, V domains shown)
VH: QVQLVQSGAEVKKPGASVKVSCKASGYTFTDYWVSWVRQAPGQGLEWMGEIYPKNQVSNFNEKFKGRVTMTTDTSTSTAYMELRSLRSDDTAVYYCARQRDYWGQGTLVTVSS
VL: DVVMTQSPLSLPVTLGQPASISCRSSQSLEYGDRYTYLEWYLQRPGQSPRLLIYGVSNRFSGVPDRFSGSGSGTDFTLKISRVEAEDVGVYYCFQATHDPNTFGQGTKLEIK
notes: Humanized, PTM de-risked, human IgG1; also called 31D9B3 VH1.3-VL2.2 hlgG1
binding result [1]: no binding (tested: 300 nM highest concentration)
EC50 [2]: 0.703 nM
Top (MFI) [2]: 24100 MFI
binding result [3]: no binding (tested: 300 nM highest concentration)
EC50 [4]: 0.783 nM
Top (MFI) [4]: 16400 MFI

B3: xi108F3D1E9 hIgG1 (antibody, V domains shown)
VH: DVQLQESGPGLVKPSQSLSLTCTVTGYSITSDFAWNWIRQFPGNKLEWMGYINFSGSTSYNPSLKSRISITRDTSKNQFFLQLNSVTTEDTATYYCAGSRYSWFAYWGQGTLVTVSA
VL: DIVLTQSPASLAVSLGQRATISCRASESVDTYGNSFMHWYQQKPGQPPKLLIYRASNLESGIPARFSGSGSRTDFTLTINPVEADDVATYYCQQSNEDPYTFGGGTKLEIK
notes: Murine variable domains in human chimeric format, human IgG1; also called xi108F3D1E9 hlgG1; 108F3D1E9 (chimeric)
ADCC reporter bioassay, EC50 [5]: 0.19 nM
ADCC reporter bioassay, Top (MFI) [5]: 13300 MFI
EC50 [10]: 1.05 nM
Top (MFI) [10]: 74400 MFI
EC50 [6]: 1.37 nM
Top (MFI) [6]: 124000 MFI
EC50 [7]: 1.05 nM
Top (MFI) [7]: 74400 MFI
EC50 [8]: 0.47 nM
Top (MFI) [8]: 8190 MFI
EC50 [4]: 0.756 nM
Top (MFI) [4]: 18700 MFI

B5: 94C4C3 H1L1 hIgG1 (antibody, V domains shown)
VH: QLQLQESGPGLVKPSETLSLTCTVSGYSITSDYAWNWIRQPPGKGLEWIGYISYSGSISYNPSLKSRVTISVDTSKNQFSLKLSSVTAADTAVYYCARSRYSWFDYWGQGTLVTVSS
VL: EIVLTQSPGTLSLSPGERATLSCSASESVDTYGNSFMHWYQQKPGQAPRLLIYRASSLESGIPDRFSGSGSGTDFTLTISRLEPEDFAVYYCQQSNEDPYTFGGGTKVEIK
notes: Humanized, human IgG1; also called 94C4C3 H1L1 hlgG1
binding result [1]: binds
EC50 [7]: 1.7 nM
Top (MFI) [7]: 53000 MFI
binding result [3]: binds
EC50 [4]: 0.695 nM
Top (MFI) [4]: 18900 MFI

Now those with a lower EC50 [4], led by results:

ADCC reporter bioassay, EC50 [5]: 0.35 nM
ADCC reporter bioassay, Top (MFI) [5]: 13100 MFI
EC50 [6]: 1.17 nM
Top (MFI) [6]: 124000 MFI
EC50 [7]: 1.21 nM
Top (MFI) [7]: 54900 MFI
EC50 [8]: 0.56 nM
Top (MFI) [8]: 8380 MFI
EC50 [9]: 1.21 nM
Top (MFI) [9]: 54900 MFI
EC50 [4]: 0.627 nM
Top (MFI) [4]: 19000 MFI
B2: xi94C4C3 hIgG1 (antibody, V domains shown)
VH: B3 VH with F33Y, N53S, F54Y, T58I, G98R, A105D
VL: B3 VL with A9T, I21L, R24S, N57S, A64V, D85A
notes: Murine variable domains in human chimeric format, human IgG1; also called xi94C4C3 hlgG1; 94C4C3 (chimeric)

binding result [1]: binds
EC50 [7]: 0.74 nM
Top (MFI) [7]: 65400 MFI
binding result [3]: binds
EC50 [4]: 0.528 nM
Top (MFI) [4]: 16200 MFI
B4: 108F3D1E9 H1L1 hIgG1 (antibody, V domains shown)
VH: B5 VH with Y33F, Y54F, I58T, D105A
VL: DIQMTQSPSSLSASVGDRVTITCRASESVDTYGNSFMHWYQQKPGKAPKLLIYRASNLESGVPSRFSGSGSGTDFTLTISSLQPEDFATYYCQQSNEDPYTFGGGTKVEIK
notes: Humanized, PTM de-risked VH, human IgG1; also called 108F3D1E9 H1L1 hlgG1

ADCC reporter bioassay, EC50 [5]: 0.27 nM
ADCC reporter bioassay, Top (MFI) [5]: 14400 MFI
EC50 [6]: 1.16 nM
Top (MFI) [6]: 122000 MFI
EC50 [7]: 0.881 nM
Top (MFI) [7]: 26200 MFI
EC50 [8]: 0.57 nM
Top (MFI) [8]: 8360 MFI
EC50 [2]: 0.881 nM
Top (MFI) [2]: 26200 MFI
EC50 [4]: 0.657 nM
Top (MFI) [4]: 18600 MFI
EC50 [11]: 0.88 nM
Top (MFI) [11]: 35200 MFI
EC50 [12]: 0.88 nM
Top (MFI) [12]: 35200 MFI
B6: xi31D9B3 hIgG1 (antibody, V domains shown)
VH: QVKLLQSGAALVKPGASVKMSCKASGYTFTDYWVSWVKQSHGKSLEWIGEIYPKNGVSNFNEKFKGKATLTVDKSTSTAYMELRRLTSEDSAIFYCTRQRDYWGQGVMVTVSS
VL: DVVLTQTPGSLSVTLGDQASISCRSSQSLEYGDGYTYLEWYLQKPGQSPQLLIYGVSNRFSGVPDRFIGSGSGTDFTLKISRVEPEDLGVYYCFQATHDPNTFGAGTKLELK
notes: Murine variable domains in human chimeric format, human IgG1; also called xi31D9B3 hlgG1; 31D9B3 hlgG1
